The results in this text go back to doi:10.1101/089938.

The target in the test is Alanine racemase (Alr) from Streptomyces coelicolor A3(2), His6-tagged (Streptomyces coelicolor A3(2)) (UniProt O86786). Description: SEC. For orientation: Size exclusion chromatography separates by hydrodynamic size, large species first.

As usually defined, the stoichiometry N is the number of molecules, sites or subunits per partner or assembly. Substance “Alanine racemase (Alr) from Streptomyces coelicolor A3(2), His6-tagged (from UniProt O86786 1-391) (enzyme)” displayed a stoichiometry N of 2.
